Key:
[1] = Stability (formation of dimers and polymers) of B29-N^ε-myristoyl des(B30) human insulin solutions, glycerol or mannitol, varying NaCl (Example VI); assay type: physicochemical; details: pH 7.5
Protocol: Solutions containing 0.6 mM B29-N^ε -myristoyl des(B30) human insulin, 1.5 mg/ml phenol and 1.72 mg/ml m-cresol, 16 mg/ml glycerol or 36 mg/ml mannitol, 13.1 μg/ml Zn, 7 mM sodium phosphate and varying amounts of sodium chloride were prepared. pH was adjusted to 7.5. Stability data (formation of dimers and polymers) after storage at 25° C. for 13 weeks or 37° C. for 8 weeks are presented in the following table 8.

[2] = Stability (formation of dimers and polymers) of B29-N^ε-myristoyl-des(B30) human insulin solutions, varying NaCl, mannitol and phenol (Example V); assay type: physicochemical; details: pH 7.4
Protocol: Solutions containing 0.6 mM B29-N^ε -myristoyl-des(B30) human insulin, 1.5 or 4.0 mg/ml phenol, 5 mM sodium phosphate, 13.1 μg/ml Zn, and varying amounts of sodium chloride and mannitol were prepared. pH was adjusted to 7.4. Stability data (formation of dimers and polymers) after storage at 25° C. for 13 weeks or 37° C. for 8 weeks are presented in the following table 7.

B29-N^ε -myristoyl-des(B30) human insulin
Di- & polymers (%) formed ([1]; 8 weeks at 37° C., NaCl 5 mM, glycerol 16 mg/ml): 2.55% | Di- & polymers (%) formed ([1]; 8 weeks at 37° C., NaCl 5 mM, mannitol 36 mg/ml): 2.28% | Di- & polymers (%) formed ([1]; 8 weeks at 37° C., NaCl 10 mM, glycerol 16 mg/ml): 2.25% | Di- & polymers (%) formed ([1]; 8 weeks at 37° C., NaCl 10 mM, mannitol 36 mg/ml): 1.90% | Di- & polymers (%) formed ([1]; 8 weeks at 37° C., NaCl 20 mM, glycerol 16 mg/ml): 1.82% | Di- & polymers (%) formed ([1]; 8 weeks at 37° C., NaCl 20 mM, mannitol 36 mg/ml): 1.61% | Di- & polymers (%) formed ([1]; 8 weeks at 37° C., NaCl 30 mM, glycerol 16 mg/ml): 1.83% | Di- & polymers (%) formed ([1]; 8 weeks at 37° C., NaCl 40 mM, glycerol 16 mg/ml): 1.78% | Di- & polymers (%) formed ([1]; 8 weeks at 37° C., NaCl 40 mM, mannitol 36 mg/ml): 1.56% | Di- & polymers (%) formed ([1]; 8 weeks at 37° C., NaCl 50 mM, glycerol 16 mg/ml): 1.68% | Di- & polymers (%) formed ([1]; 13 weeks at 25° C., NaCl 5 mM, glycerol 16 mg/ml): 1.08% | Di- & polymers (%) formed ([1]; 13 weeks at 25° C., NaCl 5 mM, mannitol 36 mg/ml): 1.05% | Di- & polymers (%) formed ([1]; 13 weeks at 25° C., NaCl 10 mM, glycerol 16 mg/ml): 0.98% | Di- & polymers (%) formed ([1]; 13 weeks at 25° C., NaCl 10 mM, mannitol 36 mg/ml): 0.84% | Di- & polymers (%) formed ([1]; 13 weeks at 25° C., NaCl 20 mM, glycerol 16 mg/ml): 0.80% | Di- & polymers (%) formed ([1]; 13 weeks at 25° C., NaCl 20 mM, mannitol 36 mg/ml): 0.71% | Di- & polymers (%) formed ([1]; 13 weeks at 25° C., NaCl 30 mM, glycerol 16 mg/ml): 0.80% | Di- & polymers (%) formed ([1]; 13 weeks at 25° C., NaCl 40 mM, glycerol 16 mg/ml): 0.79% | Di- & polymers (%) formed ([1]; 13 weeks at 25° C., NaCl 40 mM, mannitol 36 mg/ml): 0.70% | Di- & polymers (%) formed ([1]; 13 weeks at 25° C., NaCl 50 mM, glycerol 16 mg/ml): 0.72% | Di- & polymers (%) formed ([2]; 8 weeks at 37° C., NaCl 20 mM, mannitol 31 mg/ml, phenol 1.5 mg/ml): 0.77% | Di- & polymers (%) formed ([2]; 8 weeks at 37° C., NaCl 20 mM, mannitol 31 mg/ml, phenol 4.0 mg/ml): 0.77% | Di- & polymers (%) formed ([2]; 8 weeks at 37° C., NaCl 50 mM, mannitol 22 mg/ml, phenol 1.5 mg/ml): 0.71% | Di- & polymers (%) formed ([2]; 8 weeks at 37° C., NaCl 50 mM, mannitol 22 mg/ml, phenol 4.0 mg/ml): 0.71% | Di- & polymers (%) formed ([2]; 8 weeks at 37° C., NaCl 75 mM, mannitol 13 mg/ml, phenol 1.5 mg/ml): 0.65% | Di- & polymers (%) formed ([2]; 8 weeks at 37° C., NaCl 75 mM, mannitol 13 mg/ml, phenol 4.0 mg/ml): 0.70% | Di- & polymers (%) formed ([2]; 8 weeks at 37° C., NaCl 100 mM, mannitol 5 mg/ml, phenol 1.5 mg/ml): 0.66% | Di- & polymers (%) formed ([2]; 8 weeks at 37° C., NaCl 100 mM, mannitol 5 mg/ml, phenol 4.0 mg/ml): 0.68% | Di- & polymers (%) formed ([2]; 13 weeks at 25° C., NaCl 20 mM, mannitol 31 mg/ml, phenol 1.5 mg/ml): 0.40% | Di- & polymers (%) formed ([2]; 13 weeks at 25° C., NaCl 20 mM, mannitol 31 mg/ml, phenol 4.0 mg/ml): 0.42% | Di- & polymers (%) formed ([2]; 13 weeks at 25° C., NaCl 50 mM, mannitol 22 mg/ml, phenol 1.5 mg/ml): 0.35% | Di- & polymers (%) formed ([2]; 13 weeks at 25° C., NaCl 50 mM, mannitol 22 mg/ml, phenol 4.0 mg/ml): 0.37% | Di- & polymers (%) formed ([2]; 13 weeks at 25° C., NaCl 75 mM, mannitol 13 mg/ml, phenol 1.5 mg/ml): 0.34% | Di- & polymers (%) formed ([2]; 13 weeks at 25° C., NaCl 75 mM, mannitol 13 mg/ml, phenol 4.0 mg/ml): 0.39% | Di- & polymers (%) formed ([2]; 13 weeks at 25° C., NaCl 100 mM, mannitol 5 mg/ml, phenol 1.5 mg/ml): 0.31% | Di- & polymers (%) formed ([2]; 13 weeks at 25° C., NaCl 100 mM, mannitol 5 mg/ml, phenol 4.0 mg/ml): 0.37%
